The record followed here is article PMC6332795 (Theranostics, 2019).

Broadly, the Kd is the equilibrium constant for the complex coming apart.

Test [1] deals with B/Florida/4/2006 HA (recombinant HA protein) (Influenza B virus (B/Florida/4/2006), UniProt E1TVD5, strain, biotin (EZ-Link Sulfo-NHS-LC-Biotin kit)). Description: BLI.
The target in test [2] is T1, hemagglutinin (HA) of influenza B virus B/Lee/1940, on purified virus (influenza B virus (B/Lee/1940)).
T1 chain: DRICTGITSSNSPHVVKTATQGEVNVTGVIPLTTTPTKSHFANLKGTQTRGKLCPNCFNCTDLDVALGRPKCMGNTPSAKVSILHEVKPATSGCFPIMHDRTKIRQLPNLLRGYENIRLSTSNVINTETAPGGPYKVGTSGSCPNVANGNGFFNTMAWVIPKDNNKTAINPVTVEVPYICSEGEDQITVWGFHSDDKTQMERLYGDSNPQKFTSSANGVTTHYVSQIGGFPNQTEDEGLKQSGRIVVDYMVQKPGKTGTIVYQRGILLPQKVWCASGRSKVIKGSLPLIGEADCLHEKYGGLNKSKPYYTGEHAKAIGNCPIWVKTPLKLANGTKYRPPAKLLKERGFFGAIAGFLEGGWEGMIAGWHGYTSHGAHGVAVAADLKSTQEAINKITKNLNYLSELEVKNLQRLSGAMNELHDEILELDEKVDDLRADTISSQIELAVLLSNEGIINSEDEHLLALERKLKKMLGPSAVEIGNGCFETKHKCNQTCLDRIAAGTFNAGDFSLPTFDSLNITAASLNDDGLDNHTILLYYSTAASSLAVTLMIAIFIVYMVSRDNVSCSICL
As to the kind of experiment: ELISA. A general note: ELISA stands for enzyme-linked immunosorbent assay.

B1: C7G6-IgM (antibody, V domains shown)
VH: EVQLQQSGPELVKPGASVKISCKASGYTFTDYNMHWVKQSLGKSLEWIGYIYPNNGGTGYNQKFESKATLTADNSSSTAYMELRTLTSEDSAVYYCVRSGAYYFNYLVPYFDYWGQGTTLTVSS
VL: NIVLTQSPASLAVSLGQRGTISCRASESVDIYGNSFMHWYQQKPGQPPKLLIYLASKLECGVCARFNGSGCRTDFTLAIDPVEGDDGATYYCQQNYEDPWTFGGGTKLEIK
With B1, the dissociation constant Kd in test [1] was 0.58 nM. In test [2], the binding result was “binds”.

B2: C7G6-IgG (antibody, V domains shown)
VH: EVQLQQSGPELVKPGASVKISCKASGYTFTDYNMHWVKQSLGKSLEWIGYIYPNNGGTGYNQKFESKATLTADNSSSTAYMELRTLTSEDSAVYYCVRSGAYYFNYLVPYFDYWGQGTTLTVSS
VL: NIVLTQSPASLAVSLGQRGTISCRASESVDIYGNSFMHWYQQKPGQPPKLLIYLASKLECGVCARFNGSGCRTDFTLAIDPVEGDDGATYYCQQNYEDPWTFGGGTKLEIK
For the molecule B2, the Kd in test [1] was 24.7 nM. Besides, the binding result in test [2] is “binds”.

B3: C11B10 (antibody, V domains shown)
VH: EVQLQQSGPELVKPGASVKISCKASGYTFTGYNMHWVKQSHGKSLEWIGKIYPNNGVTGYNQEFRSKATLTVDNSSSTAYMELRSLTSEDSAIYFCVRSGAYYVNYLVPYFDYWGQGTTLTVSS
VL: NIVLTQSPASLAVSPGQRATISCRASESIDIYGNSFMHWYQKKPGQPPKLLIYRASNLESGVPARFNGSGSRTDFTLTIDPVEGDDGATYYCQQNYEDPWTFGGGTKLEIK
On to B3, for which the binding result in test [2] is listed as “no binding”.

B4: C3G10-IgM (antibody, V domains shown)
VH: EVQLQESGAELVKPGASVKLSCTASGFDIKDTYIHWVKQKPEKGLEWIGRIDPADGDTQSDPRFQGKATITSDTSSNTTYLHLSSLTSEDTAVYYCAKGGWYFDVWGAGTTVTVSS
VL: HIVLTQSPASLAVSLGQRGTISCRASESVDSYGNSFMHWYQQRPGQPPKLLIYLASKLKCGVPARFSGSGSRTDFTLTNDPLEGGDGATYYCQQNNEVPRTFGGGTKLEIK
As to B4, the binding result in test [2] was “binds”.

B5: C3G10-IgG (antibody, V domains shown)
VH: EVQLQESGAELVKPGASVKLSCTASGFDIKDTYIHWVKQKPEKGLEWIGRIDPADGDTQSDPRFQGKATITSDTSSNTTYLHLSSLTSEDTAVYYCAKGGWYFDVWGAGTTVTVSS
VL: HIVLTQSPASLAVSLGQRGTISCRASESVDSYGNSFMHWYQQRPGQPPKLLIYLASKLKCGVPARFSGSGSRTDFTLTNDPLEGGDGATYYCQQNNEVPRTFGGGTKLEIK
As for B5, the binding result in test [2] is recorded as “binds”.

B6: C10H10-IgM (antibody, V domains shown)
VH: EIQLQQSGPELVKPGASLKVSCKGFGYSFTDYKMYWVKQSHGKSLEWIGYIDPYNGGMRYNQKFKVKATLTVDMSSNTTFMHLNSLTFEDFAVYYCARGYGKNYAMEYWGQGTSVTVSS
VL: NIVLTQSPASLAVSLGQRATISCRASESVDTYGQSFMHWYQQKPGQPPKLLIHLASNLESGVPARFNGSGSRTDFTLTIDPVEADDAATYYCQQNNEDPYTFGGGTKLEIK
Regarding B6, the binding result in test [2] was “no binding”.

B7: C10H10-IgG (antibody, V domains shown)
VH: EIQLQQSGPELVKPGASLKVSCKGFGYSFTDYKMYWVKQSHGKSLEWIGYIDPYNGGMRYNQKFKVKATLTVDMSSNTTFMHLNSLTFEDFAVYYCARGYGKNYAMEYWGQGTSVTVSS
VL: NIVLTQSPASLAVSLGQRATISCRASESVDTYGQSFMHWYQQKPGQPPKLLIHLASNLESGVPARFNGSGSRTDFTLTIDPVEADDAATYYCQQNNEDPYTFGGGTKLEIK
Take B7: the binding result in test [2] was “no binding”.
